Experimental data published in patent US20250122303A1, “TREATMENT AND PREVENTION OF CANCER USING HER3 ANTIGEN-BINDING MOLECULES” (Hummingbird Bioscience Pte. Ltd., priority 2021, published 2025).
“Also recorded” adds a separate entry of the source.

How the values were obtained:
FaDu cells = test: CCK-8 proliferation assay, FaDu; format: cell-based, human; conditions: 5 days
Description: Briefly, N87 and FaDu cells were treated with serially diluted concentrations of anti-HER3 antibody 10D1, starting from 100 μg/ml with a 9-point half log dilution. Cell proliferation was measuring using the CCK-8 proliferation assay (Dojindo, Japan) after a period of 5 days, in accordance with the manufacturer's instructions. Briefly 1× CCK-8 solution was added to each well followed by incubation for 2 h at 37° C. The OD was then measured at 450 nm.

His-tagged human HER3 = His-tagged human HER3 (Homo sapiens, UniProt P21860); test: BLI competition between anti-HER3 antibodies for binding to HER3
Description: Bio-Layer Interferometry (BLI) experiments were performed using the Octet QK384 system (ForteBio). anti-Penta-HIS (HIS1K) coated biosensor tips (ForteBio, USA) were used to capture His-tagged human HER3 (75 nM; 300 s). Binding by saturating antibody ([…]; 600 s) was detected, followed by a dissociation step (120s), followed by detection of binding with competing antibody (300 nM; 300 s), followed by a dissociation step (120s).
BLI experiments were performed as described in Example 3.5 with one alteration: 400 nM of competing antibodies were used. The variable regions of M-05-74 and M-08-11 antibodies were cloned in the PDZ vector having human IgG1 and IgKappa Fc backbone.

[1] = tested on: ACHN cell-line derived mouse model of renal cell carcinoma; test: ACHN cell-line derived xenograft model; format: in vivo; conditions: IP biweekly 500 μg, 7 doses
Description: (§1) Tumor volumes were measured 3 times a week using a digital caliper and calculated using the formula [L ×W2/2]. Study End point was considered to have been reaches once the tumors of the control arm measured >1.5 cm in length.
The model was established by subcutaneous injection of 1×10^6 ACHN cells into the right flanks of female NCr nude mice (n=6 mice per treatment group).
10D1 was administered IP, biweekly at 500 μg per dose (for a total of 7 doses); a control treatment group received an equal volume of PBS.

[2] = tested on: OvCAR8 cell-line derived mouse model of ovarian carcinoma; test: OvCAR8 cell-line derived xenograft model; format: in vivo; conditions: OvCAR8, IP biweekly 500 μg, 9 doses
Description: as §1
The model was established by subcutaneous injection of 1×10^6 OvCAR8 cells into the right flanks of female NCr nude mice (n=6 mice per treatment group).
10D1 was administered IP, biweekly at 500 μg per dose (for a total of 9 doses); a control treatment group received an equal volume of PBS.
Tumour cells were inserted with matrigel subcutaneously into the right flanks of female NCr nude mice.
Murine tumour efficacy studies were performed using cell-line derived xenograft (CDX) models in mice. Female NCr nude mice (5-8 weeks old, 21-29 g) were subcutaneously implanted with N87, A549, FaDu, OvCAR8 cells. Treatment was initiated when tumours reached approximately 100 to 200 mm^3. Vehicle (PBS) or therapeutic antibodies (25 mg/kg) were administered intraperitoneally (IP) at indicated time points (weekly FaDu and OvCAR8, twice weekly N87 and A549). Tumours were measured twice per week using a calliper and tumour volume (mm^3) was calculated. Each data point represents the mean tumour volume ±SEM (n=8 mice).

rat HER3 = target: T1, rat HER3 (Rattus norvegicus, UniProt Q62799); test: ELISA cross-reactivity, rat HER3; format: binding
T1 construct: purchased Sino Biological Inc., China
Description: ELISAs were used to determine the binding specificity of the antibodies. The antibodies were analysed for binding to human HER3 polypeptide, as well as respective mouse, rat and monkey homologues of HER3 (Sino Biological Inc., China). The antibodies were also analysed for their ability to bind to human EGFR and human HER2 (Sino Biological Inc., China).
ELISAs were carried out according to standard protocols. Briefly, 96-well plates (Nunc, Denmark) were coated with 0.1 μg/ml of target polypeptide in phosphate-buffered saline (PBS) for 16 h at 4° C. After blocking for 1 h with 1% BSA in Tris buffer saline (TBS) at room temperature, the anti-HER3 antibody was serially diluted with the highest concentration being 10 μg/ml, and added to the plate. Post 1 h incubation at room temperature, plates were washed three times with TBS containing 0.05% Tween 20 (TBS-T) and were then incubated with a HRP-conjugated anti-His antibody (Life Technologies, Inc., USA) for 1 h at room temperature. After washing, plates were developed with colorimetric detection substrate 3,3′,5,5′-tetramethylbenzidine (Turbo-TMB; Pierce, USA) for 10 min. The reaction was stopped with 2M H2SO4, and OD was measured at 450 nm. […]

human HER3 = human HER3 (Homo sapiens, UniProt P21860); test: Global affinity study, Bio-Layer Interferometry (Octet QK384); format: binding; conditions: IgG1 format, 25° C.; read-out: KD
Description: The anti-HER3 antibody clones in IgG1 format were analysed for binding affinity to human HER3. Bio-Layer Interferometry (BLI) experiments were performed using the Octet QK384 system (ForteBio). anti-Human IgG Capture (AHC) Octet sensor tips (Pall ForteBio, USA) were used to anti-HER3 antibodies (25 nM). All measurements were performed at 25° C. with agitation at 1000 rpm. Kinetic measurements for antigen binding were performed by loading His-tagged human HER3 antigens at different concentrations for 120 s, followed by a 120 s dissociation time by transferring the biosensors into assay buffer containing wells. Sensograms were referenced for buffer effects and then fitted using the Octet QK384 user software (Pall ForteBio, USA). Kinetic responses were subjected to a global fitting using a one site binding model to obtain values for association (Kon), dissociation (Koff) rate constants and the equilibrium dissociation constant (KD). Only curves that could be reliably fitted with the software (R^2>0.90) were included in the analysis.
Bio-Layer Interferometry (BLI) experiments were performed using the Octet QK384 system (ForteBio). […] Binding was detected using titrated HIS-tagged human HER3 in steps of baseline (60 s), loading (120 s), baseline2 (60 s), association (120 s), dissociation (FcA 120 s, FcB 600 s) and regeneration (15 s). Sensorgrams were analysed as described in Example 3.3. […]

T1 sequence (Q62799 20-1339): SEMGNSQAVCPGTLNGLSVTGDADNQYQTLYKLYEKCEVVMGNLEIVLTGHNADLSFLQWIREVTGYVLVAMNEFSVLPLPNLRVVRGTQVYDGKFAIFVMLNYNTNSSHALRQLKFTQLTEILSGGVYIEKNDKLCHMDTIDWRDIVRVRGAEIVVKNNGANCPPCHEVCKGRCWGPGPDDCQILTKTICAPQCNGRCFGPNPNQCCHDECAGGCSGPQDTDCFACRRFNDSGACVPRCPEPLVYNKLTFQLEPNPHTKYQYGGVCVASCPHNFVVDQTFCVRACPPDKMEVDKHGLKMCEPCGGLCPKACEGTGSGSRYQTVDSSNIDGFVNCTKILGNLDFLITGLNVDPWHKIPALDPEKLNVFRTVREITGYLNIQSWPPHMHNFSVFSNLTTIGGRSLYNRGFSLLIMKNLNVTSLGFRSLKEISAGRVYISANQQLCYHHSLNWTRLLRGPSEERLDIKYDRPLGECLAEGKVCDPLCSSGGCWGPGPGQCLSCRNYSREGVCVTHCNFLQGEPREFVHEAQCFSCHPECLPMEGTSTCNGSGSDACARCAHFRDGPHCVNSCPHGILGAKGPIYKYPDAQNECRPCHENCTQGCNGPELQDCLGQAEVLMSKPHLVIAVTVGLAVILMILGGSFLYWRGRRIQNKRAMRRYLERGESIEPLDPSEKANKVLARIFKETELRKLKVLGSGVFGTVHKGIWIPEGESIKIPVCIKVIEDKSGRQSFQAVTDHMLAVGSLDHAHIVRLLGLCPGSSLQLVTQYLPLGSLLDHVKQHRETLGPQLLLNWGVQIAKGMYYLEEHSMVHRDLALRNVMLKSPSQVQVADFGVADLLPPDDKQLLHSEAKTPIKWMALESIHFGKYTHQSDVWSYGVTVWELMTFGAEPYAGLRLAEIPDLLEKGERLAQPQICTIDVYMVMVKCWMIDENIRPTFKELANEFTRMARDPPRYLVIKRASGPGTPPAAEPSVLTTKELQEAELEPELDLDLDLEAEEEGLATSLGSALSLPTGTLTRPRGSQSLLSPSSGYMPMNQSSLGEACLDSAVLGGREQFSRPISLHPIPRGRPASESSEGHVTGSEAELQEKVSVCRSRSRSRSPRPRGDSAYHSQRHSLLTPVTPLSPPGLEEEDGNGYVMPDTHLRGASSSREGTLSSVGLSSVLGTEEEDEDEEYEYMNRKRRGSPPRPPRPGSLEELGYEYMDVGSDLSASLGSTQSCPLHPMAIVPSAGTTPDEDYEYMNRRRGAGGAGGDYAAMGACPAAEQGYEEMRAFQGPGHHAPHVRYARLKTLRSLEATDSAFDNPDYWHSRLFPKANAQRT

B1: 10D1: anti-HER3 antibody clone, VH SEQ ID NO:24, VL SEQ ID NO:74; [1] of Example 2.2 (antibody, V domains shown)
VH: DVQLQESGPDLVKPSQSLSLTCTVTGYSITSGYSWHWIRQFPGNKLEWMGSIHYSGGTNYNPSLKSRISITRDTSKNQFFLQLNSVTTEDTATYFCARMTTAPRYPFDYWGQGTTLTVSS
VL: DIVMTQSQKFMSTSVGDRVSVTCKASQIVGSNVAWYQQKPGQSPKPLIYSASYRYSGVPDRFTASGSGTDFTLTITNVQSEDLAEYFCQQYSSHPLTFGAGTKLELK
cell proliferation (FaDu cells): dose-dependent inhibition of cell proliferation | competition with MM-121 and/or LJM-716 for binding to HER3 (His-tagged human HER3): not to compete; also recorded: distinct and topologically distant epitope | inhibition of tumor growth [1]: ~61% | inhibition of tumor growth [2]: ~74% | binding / cross-reactivity with rat HER3 (rat HER3): substantial cross-reactivity | Kd (human HER3): 9.58 nM
